One block for each molecule: values may come before it.
Molecular target: wild type (WT) Aβ40 peptide (human)

ThT fibrillization of 25 μM WT Aβ40 co-incubated with full-length A2T (WT to A2T 1 to 1 and 1 to 2): extension of the lag phase: 8 h
Molecule: Aβ40 A2T variant, full-length (peptide)

ThT fibrillization of 25 μM WT Aβ40 co-incubated with full-length A2V (WT to A2V 1 to 1 and 1 to 2): shortening of the lag time: 6 h
ThT signal at the final plateau of 25 μM WT Aβ40 mixed with two fold full-length A2V, against WT alone: 40%
Molecule: Aβ40 A2V variant, full-length (peptide)

ThT fibrillization of 25 μM WT Aβ40 co-incubated with A2V NTF(1–10) (1 to 1 and 1 to 6): shortening of the lag phase: 8 h
ThT signal of the end-point product of 25 μM WT Aβ40 with A2V NTF(1–10) (1 fold and 6 fold), against WT only: 22%
Molecule: A2V NTF(1–10) (peptide)

ThT fibrillization of 25 μM WT Aβ40 co-incubated with A2T NTF(1–10) (1 to 1 and 1 to 6): decrease of the ThT plateau: 20%
Molecule: DTEFRHDSYG [A2T NTF(1–10)]

— article PMC5376091
